Measurements from PMC12102759 (2025).

B1: CBL peptide 540-555 (E3 ubiquitin-protein ligase CBL), 16-mer library wild type / YES SH3 (YES1 SH3 domain, residues 90-152) (parent complex)
chain 1: RDLPPPPPPDRPYSVG
chain 2: not shown

Variants of: B1
Assay: proteomic peptide phage display deep mutational scan (ProP-PD DMS): M13 P8 16-mer library selected against immobilised GST-tagged bait for four days (rounds), NGS of the eluted pools per day and pseudo-replica; bait immobilised on MaxiSorp plates (10 µg), library pre-cleared on GST, 2 h binding at 4 °C, five washes; one round per day, days 1-4; value from days 2 and 3

Q: With chain 1 S14H as the variant, how does the screen value read?
A: 0.000385 average fractional NGS count over selection days 2 and 3 (reads of this peptide / all reads for the bait, averaged over …

Q: For chain 1 S14E, which screen value is on record?
A: 0.0212 average fractional NGS count over selection days 2 and 3 (reads of this peptide / all reads for the bait, averaged over …

Q: Which screen value does the source give for chain 1 S14Y here?
A: 0.00258 average fractional NGS count over selection days 2 and 3 (reads of this peptide / all reads for the bait, averaged over …

Q: With chain 1 S14A as the variant, how does the screen value read?
A: 0.00883 average fractional NGS count over selection days 2 and 3 (reads of this peptide / all reads for the bait, averaged over …

Q: chain 1 S14P was tested. Which screen value did it give?
A: 0.00266 average fractional NGS count over selection days 2 and 3 (reads of this peptide / all reads for the bait, averaged over …

Q: chain 1 S14G was tested. Which screen value did it give?
A: 0.00254 average fractional NGS count over selection days 2 and 3 (reads of this peptide / all reads for the bait, averaged over …

Q: For chain 1 P7W, which screen value is on record?
A: 0.000156 average fractional NGS count over selection days 2 and 3 (reads of this peptide / all reads for the bait, averaged over …

Q: How did the screen value turn out when chain 1 P7N was run?
A: 0.000153 average fractional NGS count over selection days 2 and 3 (reads of this peptide / all reads for the bait, averaged over …

Q: For chain 1 P7V, which screen value is on record?
A: 0.00515 average fractional NGS count over selection days 2 and 3 (reads of this peptide / all reads for the bait, averaged over …

Q: For chain 1 P7L, which screen value is on record?
A: 0.00235 average fractional NGS count over selection days 2 and 3 (reads of this peptide / all reads for the bait, averaged over …

Q: chain 1 P7E was tested. Which screen value did it give?
A: 0.000775 average fractional NGS count over selection days 2 and 3 (reads of this peptide / all reads for the bait, averaged over …

Q: Which screen value does the source give for chain 1 P7Y here?
A: 0.000167 average fractional NGS count over selection days 2 and 3 (reads of this peptide / all reads for the bait, averaged over …

Q: With chain 1 P7D as the variant, how does the screen value read?
A: 0.00038 average fractional NGS count over selection days 2 and 3 (reads of this peptide / all reads for the bait, averaged over …

Q: How did the screen value turn out when chain 1 P7K was run?
A: 0.000178 average fractional NGS count over selection days 2 and 3 (reads of this peptide / all reads for the bait, averaged over …

Q: For chain 1 P7Q, which screen value is on record?
A: 0.000262 average fractional NGS count over selection days 2 and 3 (reads of this peptide / all reads for the bait, averaged over …

Q: How did the screen value turn out when chain 1 P7I was run?
A: 0.000596 average fractional NGS count over selection days 2 and 3 (reads of this peptide / all reads for the bait, averaged over …

Q: Which screen value does the source give for chain 1 P6N here?
A: 0.000163 average fractional NGS count over selection days 2 and 3 (reads of this peptide / all reads for the bait, averaged over …

Q: chain 1 P6R was tested. Which screen value did it give?
A: 0.00111 average fractional NGS count over selection days 2 and 3 (reads of this peptide / all reads for the bait, averaged over …

Q: For chain 1 P6L, which screen value is on record?
A: 0.000189 average fractional NGS count over selection days 2 and 3 (reads of this peptide / all reads for the bait, averaged over …

Q: For chain 1 P6K, which screen value is on record?
A: 0.00059 average fractional NGS count over selection days 2 and 3 (reads of this peptide / all reads for the bait, averaged over …

Q: For chain 1 P6V, which screen value is on record?
A: 0.0162 average fractional NGS count over selection days 2 and 3 (reads of this peptide / all reads for the bait, averaged over …

Q: Which screen value does the source give for chain 1 D10Q here?
A: 0.000233 average fractional NGS count over selection days 2 and 3 (reads of this peptide / all reads for the bait, averaged over …

Q: For chain 1 D10E, which screen value is on record?
A: 0.0012 average fractional NGS count over selection days 2 and 3 (reads of this peptide / all reads for the bait, averaged over …

Q: chain 1 D10L was tested. Which screen value did it give?
A: 0.00104 average fractional NGS count over selection days 2 and 3 (reads of this peptide / all reads for the bait, averaged over …

Q: With chain 1 D10K as the variant, how does the screen value read?
A: 0.00142 average fractional NGS count over selection days 2 and 3 (reads of this peptide / all reads for the bait, averaged over …

Q: With chain 1 D10P as the variant, how does the screen value read?
A: 0.000173 average fractional NGS count over selection days 2 and 3 (reads of this peptide / all reads for the bait, averaged over …

Q: For chain 1 D10V, which screen value is on record?
A: 0.000894 average fractional NGS count over selection days 2 and 3 (reads of this peptide / all reads for the bait, averaged over …

Q: For chain 1 D10G, which screen value is on record?
A: 0.00202 average fractional NGS count over selection days 2 and 3 (reads of this peptide / all reads for the bait, averaged over …

Q: chain 1 D10Y was tested. Which screen value did it give?
A: 0.000449 average fractional NGS count over selection days 2 and 3 (reads of this peptide / all reads for the bait, averaged over …

Q: With chain 1 D10S as the variant, how does the screen value read?
A: 0.000232 average fractional NGS count over selection days 2 and 3 (reads of this peptide / all reads for the bait, averaged over …

Q: For chain 1 D10T, which screen value is on record?
A: 0.00033 average fractional NGS count over selection days 2 and 3 (reads of this peptide / all reads for the bait, averaged over …

Q: For chain 1 D10I, which screen value is on record?
A: 0.000128 average fractional NGS count over selection days 2 and 3 (reads of this peptide / all reads for the bait, averaged over …

Q: Which screen value does the source give for chain 1 P8G here?
A: 0.000141 average fractional NGS count over selection days 2 and 3 (reads of this peptide / all reads for the bait, averaged over …

Q: With chain 1 P8D as the variant, how does the screen value read?
A: 0.000795 average fractional NGS count over selection days 2 and 3 (reads of this peptide / all reads for the bait, averaged over …

Q: How did the screen value turn out when chain 1 P8N was run?
A: 0.00013 average fractional NGS count over selection days 2 and 3 (reads of this peptide / all reads for the bait, averaged over …

Q: How did the screen value turn out when chain 1 P8S was run?
A: 0.00243 average fractional NGS count over selection days 2 and 3 (reads of this peptide / all reads for the bait, averaged over …

Q: Which screen value does the source give for chain 1 P8W here?
A: 0.00267 average fractional NGS count over selection days 2 and 3 (reads of this peptide / all reads for the bait, averaged over …

Q: For chain 1 P8T, which screen value is on record?
A: 0.0233 average fractional NGS count over selection days 2 and 3 (reads of this peptide / all reads for the bait, averaged over …

Q: How did the screen value turn out when chain 1 P8A was run?
A: 0.00106 average fractional NGS count over selection days 2 and 3 (reads of this peptide / all reads for the bait, averaged over …

Q: Which screen value does the source give for chain 1 P8F here?
A: 0.00526 average fractional NGS count over selection days 2 and 3 (reads of this peptide / all reads for the bait, averaged over …

Q: For chain 1 P5Y, which screen value is on record?
A: 0.000822 average fractional NGS count over selection days 2 and 3 (reads of this peptide / all reads for the bait, averaged over …

Q: chain 1 P5T was tested. Which screen value did it give?
A: 0.00773 average fractional NGS count over selection days 2 and 3 (reads of this peptide / all reads for the bait, averaged over …

Q: How did the screen value turn out when chain 1 P5D was run?
A: 0.00109 average fractional NGS count over selection days 2 and 3 (reads of this peptide / all reads for the bait, averaged over …

Q: With chain 1 P5F as the variant, how does the screen value read?
A: 0.00079 average fractional NGS count over selection days 2 and 3 (reads of this peptide / all reads for the bait, averaged over …

Q: chain 1 P5N was tested. Which screen value did it give?
A: 0.00347 average fractional NGS count over selection days 2 and 3 (reads of this peptide / all reads for the bait, averaged over …

Q: Which screen value does the source give for chain 1 P5S here?
A: 0.00042 average fractional NGS count over selection days 2 and 3 (reads of this peptide / all reads for the bait, averaged over …

Q: How did the screen value turn out when chain 1 P5G was run?
A: 0.00951 average fractional NGS count over selection days 2 and 3 (reads of this peptide / all reads for the bait, averaged over …

Q: With chain 1 P5A as the variant, how does the screen value read?
A: 0.000329 average fractional NGS count over selection days 2 and 3 (reads of this peptide / all reads for the bait, averaged over …

Q: chain 1 P5V was tested. Which screen value did it give?
A: 0.0116 average fractional NGS count over selection days 2 and 3 (reads of this peptide / all reads for the bait, averaged over …

Q: How did the screen value turn out when chain 1 P5L was run?
A: 0.00149 average fractional NGS count over selection days 2 and 3 (reads of this peptide / all reads for the bait, averaged over …

Q: chain 1 P5W was tested. Which screen value did it give?
A: 0.000217 average fractional NGS count over selection days 2 and 3 (reads of this peptide / all reads for the bait, averaged over …

Q: With chain 1 P9E as the variant, how does the screen value read?
A: 0.000429 average fractional NGS count over selection days 2 and 3 (reads of this peptide / all reads for the bait, averaged over …

Q: Which screen value does the source give for chain 1 P9I here?
A: 0.000523 average fractional NGS count over selection days 2 and 3 (reads of this peptide / all reads for the bait, averaged over …

Q: chain 1 P9V was tested. Which screen value did it give?
A: 0.00298 average fractional NGS count over selection days 2 and 3 (reads of this peptide / all reads for the bait, averaged over …

Q: chain 1 P9D was tested. Which screen value did it give?
A: 0.00109 average fractional NGS count over selection days 2 and 3 (reads of this peptide / all reads for the bait, averaged over …

Q: With chain 1 P9G as the variant, how does the screen value read?
A: 0.00146 average fractional NGS count over selection days 2 and 3 (reads of this peptide / all reads for the bait, averaged over …

Q: With chain 1 P9K as the variant, how does the screen value read?
A: 0.00297 average fractional NGS count over selection days 2 and 3 (reads of this peptide / all reads for the bait, averaged over …

Q: For chain 1 P9F, which screen value is on record?
A: 0.000295 average fractional NGS count over selection days 2 and 3 (reads of this peptide / all reads for the bait, averaged over …

Q: How did the screen value turn out when chain 1 P9T was run?
A: 0.000876 average fractional NGS count over selection days 2 and 3 (reads of this peptide / all reads for the bait, averaged over …

Q: With chain 1 R1I as the variant, how does the screen value read?
A: 0.00103 average fractional NGS count over selection days 2 and 3 (reads of this peptide / all reads for the bait, averaged over …

Q: chain 1 R1Q was tested. Which screen value did it give?
A: 7.8e-05 average fractional NGS count over selection days 2 and 3 (reads of this peptide / all reads for the bait, averaged over …

Q: How did the screen value turn out when chain 1 R1N was run?
A: 0.00136 average fractional NGS count over selection days 2 and 3 (reads of this peptide / all reads for the bait, averaged over …

Q: With chain 1 R1V as the variant, how does the screen value read?
A: 0.000334 average fractional NGS count over selection days 2 and 3 (reads of this peptide / all reads for the bait, averaged over …

Q: With chain 1 R1H as the variant, how does the screen value read?
A: 0.0063 average fractional NGS count over selection days 2 and 3 (reads of this peptide / all reads for the bait, averaged over …

Q: How did the screen value turn out when chain 1 Y13I was run?
A: 0.00384 average fractional NGS count over selection days 2 and 3 (reads of this peptide / all reads for the bait, averaged over …

Q: chain 1 Y13R was tested. Which screen value did it give?
A: 0.000326 average fractional NGS count over selection days 2 and 3 (reads of this peptide / all reads for the bait, averaged over …

Q: Which screen value does the source give for chain 1 Y13G here?
A: 8.54e-05 average fractional NGS count over selection days 2 and 3 (reads of this peptide / all reads for the bait, averaged over …

Q: chain 1 Y13Q was tested. Which screen value did it give?
A: 0.00091 average fractional NGS count over selection days 2 and 3 (reads of this peptide / all reads for the bait, averaged over …

Q: For chain 1 Y13S, which screen value is on record?
A: 0.00123 average fractional NGS count over selection days 2 and 3 (reads of this peptide / all reads for the bait, averaged over …

Q: chain 1 Y13H was tested. Which screen value did it give?
A: 0.000183 average fractional NGS count over selection days 2 and 3 (reads of this peptide / all reads for the bait, averaged over …

Q: How did the screen value turn out when chain 1 Y13N was run?
A: 0.00025 average fractional NGS count over selection days 2 and 3 (reads of this peptide / all reads for the bait, averaged over …

Q: With chain 1 Y13K as the variant, how does the screen value read?
A: 0.000696 average fractional NGS count over selection days 2 and 3 (reads of this peptide / all reads for the bait, averaged over …

Q: How did the screen value turn out when chain 1 Y13E was run?
A: 0.000222 average fractional NGS count over selection days 2 and 3 (reads of this peptide / all reads for the bait, averaged over …
